Experiment [1] addresses CD4-Ig (UniProt P01730).
The target of experiment [2] is CD4-Ig (UniProt P01730). The experiment can be described thus: SPR; CD4-Ig captured on a protein A biosensor chip; monomeric gp120 proteins flowed over as a fourfold dilution series with a maximum concentration of 250 nM. (In general: In SPR one partner is held on a chip, and binding of the other changes the refractive index at the surface.)
For experiment [3], the target named is YU2wt gp120 (HIV-1 strain YU2) (UniProt P35961).
The target in experiment [4] is YU2_(G471R) gp120 (HIV-1 (strain YU2)).
Experiment [5] deals with YU2_(G458D) gp120 (HIV-1 (strain YU2)).
Experiment [6] concerns the target YU2_(E466K) gp120 (HIV-1 (strain YU2)).
Experiment [7] has as its target YU2_(G366E) (HIV-1 (strain YU2)).

Regarding YU2E466K gp120 (natural protein), in the experiment with CD4-Ig [1], the Kd – broadly, a measure of binding affinity in units of concentration – was determined as 1.7 nM; the koff (as a rule, the rate constant with which the complex falls apart) was 0.00027 s⁻¹; the on-rate constant (kon) (as a rule, a measure of how fast the partners come together) was 160000 M⁻¹ s⁻¹.

In the case of YU2G458D gp120 (natural protein), in the experiment with CD4-Ig [1], the Kd was 6 nM, the koff stood at 0.00121 s⁻¹ and the kon is 200000 M⁻¹ s⁻¹.

In the case of YU2_(G458D) gp120 (natural protein), the fold faster dissociation than YU2wt gp120 in the experiment with CD4-Ig [2] came to 11 fold.

Turning to sCD4 D1D2 (domain or fragment), the Table S5: IC50 of sCD4 in the in vitro neutralisation of YU2wt pseudovirus on TZM-bl cells (blocks Env from CD4 on target cells) in experiment [3] is 0.29 µg/mL. The neutralization of YU2 mutant pseudovirus by sCD4, TZM-bl assay, loss of sensitivity against YU2wt in experiment [4], in experiment [5], in experiment [6] and in experiment [7] was 30 fold each time.

In the experiment with CD4-Ig [1], YU2G471R gp120 (natural protein) came in with a Kd of 1.6 nM, an off-rate constant (koff) of 0.00021 s⁻¹ and a kon of 140000 M⁻¹ s⁻¹.

Source of the values: PMC7414181.
